In patent US20090018083A1:

Legend:
[1] = biological target: T1, BCL6-3C BTB domain (human BCL6 residues 5-129 with C8Q/C67R/C84N) (human), P41182; assay: ITC in solution, 25° C; details: remark: other sources report otherwise
[2] = biological target: T1, BCL6-3C BTB domain (human BCL6 residues …); assay: ITC in solution, 25° C; ITC in solution, not SPR; details: remark: other sources report otherwise

B1: SMRT^1414-1430 peptide (SMRT-BBD), no additional N-terminal residues (peptide)
peptide: LVATVKEAGRSIHEIPR
-TΔS [1]: 16.4
stoichiometry (SMRT peptides per BCL6 chain) (SMRT peptides per BCL6 chain) [1]: 1.11
ΔH [1]: -23.2 kcal/mol
Kd [2]: 11.4 µM
